One data set concerns the target Thrombin (Homo sapiens, UniProt P00734;P00734 P00734:328-363,P00734:364-622). In words: ELONA.
The target of data set [1] is T1, SARS-CoV-2 spike receptor-binding domain peptide No. 4 (YRLFRK) (SARS-CoV-2).
T1 chain: YRLFRK
In words: NMR; quadruplex imino signals induced by peptide; 1 mM each, 90/10 H2O/D2O, 298 K, no additives. The conditions noted are these: tags: isolated peptide; G4.

Data set [2] addresses T2, SARS-CoV-2 RNA-dependent RNA polymerase peptide LYRNRDV (SARS-CoV-2).
T2 chain: LYRNRDV
In words: NMR; quadruplex fold induced by peptide; 90/10 H2O/D2O, 298 K. To be noted: tags: isolated peptide; G4.

Data set [3] addresses T3, SARS-CoV-2 RNA-dependent RNA polymerase peptide HRFYRLAN (SARS-CoV-2).
T3 chain: HRFYRLAN
The experiment in a line: ITC; 1:1 stoichiometry; 50 mM sodium phosphate, 150 mM NaCl, pH 7.06, 25 C; quadruplex induction also by NMR; Kd not given. To be noted: tags: isolated peptide; G4. For orientation: In ITC the heat of successive injections is recorded.

Data set [4] deals with T4, SARS-CoV-2 spike receptor-binding domain control peptide NRKRISN (SARS-CoV-2).
T4 chain: NRKRISN
The experiment in a line: NMR: nearly complete absence of quadruplex formation; also used as control in ITC (50 mM sodium phosphate, 150 mM NaCl, pH 7.16, 25 C). To be noted: tags: isolated peptide; G4.

GGTTGGTGTGGTTGG (ssDNA) [BC007 5'-biotinylated]: in the data set with Thrombin, the binding result is “binds”.

Consider GGTTGGTGTGGTTGG (ssDNA) [BC007], for which the binding result is “binds” in data set [1], “binds” in data set [2], “binds” in data set [3] and “no binding” in data set [4].
